The target of this assay is human GLP-1 receptor (human, UniProt P43220). The assay is described as follows: cell-based or functional assay.

Where no end group is shown, it is not given here. [ ]: non-standard residue; d: D form. Aib = CC(C)(N)C(=O)O

B1: [Aib8,Lys23,Arg24,Arg26,Glu34,Lys35,Aib36,Lys37]-GLP-1-(7-37)-peptidyl-Glu-Phe-Leu amide (peptide)
peptide: H[Aib]EGTFTSDVSSYLEGKRAREFIAWLVEK[Aib]KEFL-NH2
modifications: N-terminus assumed
SMILES: CC[C@H](C)[C@H](NC(=O)[C@H](Cc1ccccc1)NC(=O)[C@H](CCC(=O)O)NC(=O)[C@H](CCCNC(=N)N)NC(=O)[C@H](C)NC(=O)[C@H](CCCNC(=N)N)NC(=O)[C@H](CCCCN)NC(=O)CNC(=O)[C@H](CCC(=O)O)NC(=O)[C@H](CC(C)C)NC(=O)[C@H](Cc1ccc(O)cc1)NC(=O)[C@H](CO)NC(=O)[C@H](CO)NC(=O)[C@@H](NC(=O)[C@H](CC(=O)O)NC(=O)[C@H](CO)NC(=O)[C@@H](NC(=O)[C@H](Cc1ccccc1)NC(=O)[C@@H](NC(=O)CNC(=O)[C@H](CCC(=O)O)NC(=O)C(C)(C)NC(=O)[C@@H](N)Cc1c[nH]cn1)[C@@H](C)O)[C@@H](C)O)C(C)C)C(=O)N[C@@H](C)C(=O)N[C@@H](Cc1c[nH]c2ccccc12)C(=O)N[C@@H](CC(C)C)C(=O)N[C@H](C(=O)N[C@@H](CCC(=O)O)C(=O)N[C@@H](CCCCN)C(=O)NC(C)(C)C(=O)N[C@@H](CCCCN)C(=O)N[C@@H](CCC(=O)O)C(=O)N[C@@H](Cc1ccccc1)C(=O)N[C@@H](CC(C)C)C(N)=O)C(C)C
Turning to B1, the “CRE luciferase EC50, 0% HSA” value turned out to be 0.383 nM and the “CRE luciferase EC50, 1% HSA” value was found to be 0.138 nM.

B2: [Aib2,Gly16,Glu21,Lys29,Aib30,Leu31,Glu32,Phe33,Leu34,Glu35,Leu36,Leu37]-Exendin-4-(1-37)-peptide amide (peptide)
peptide: H[Aib]EGTFTSDLSKQMEGEAVREFIEWLKNK[Aib]LEFLELL-NH2
modifications: N-terminus assumed
SMILES: CC[C@H](C)[C@H](NC(=O)[C@H](Cc1ccccc1)NC(=O)[C@H](CCC(=O)O)NC(=O)[C@H](CCCNC(=N)N)NC(=O)[C@@H](NC(=O)[C@H](C)NC(=O)[C@H](CCC(=O)O)NC(=O)CNC(=O)[C@H](CCC(=O)O)NC(=O)[C@H](CCSC)NC(=O)[C@H](CCC(N)=O)NC(=O)[C@H](CCCCN)NC(=O)[C@H](CO)NC(=O)[C@H](CC(C)C)NC(=O)[C@H](CC(=O)O)NC(=O)[C@H](CO)NC(=O)[C@@H](NC(=O)[C@H](Cc1ccccc1)NC(=O)[C@@H](NC(=O)CNC(=O)[C@H](CCC(=O)O)NC(=O)C(C)(C)NC(=O)[C@@H](N)Cc1c[nH]cn1)[C@@H](C)O)[C@@H](C)O)C(C)C)C(=O)N[C@@H](CCC(=O)O)C(=O)N[C@@H](Cc1c[nH]c2ccccc12)C(=O)N[C@@H](CC(C)C)C(=O)N[C@@H](CCCCN)C(=O)N[C@@H](CC(N)=O)C(=O)N[C@@H](CCCCN)C(=O)NC(C)(C)C(=O)N[C@@H](CC(C)C)C(=O)N[C@@H](CCC(=O)O)C(=O)N[C@@H](Cc1ccccc1)C(=O)N[C@@H](CC(C)C)C(=O)N[C@@H](CCC(=O)O)C(=O)N[C@@H](CC(C)C)C(=O)N[C@@H](CC(C)C)C(N)=O
On to B2, for which the “CRE luciferase EC50, 0% HSA” value came out at 0.506 nM and the “CRE luciferase EC50, 1% HSA” value is 0.26 nM.

B3: [Aib8,Glu23,Val25,Lys27,Glu34,Lys35,Aib36,Lys37]-GLP-1-(7-37)-peptidyl-Glu-Phe-Leu amide (peptide)
peptide: H[Aib]EGTFTSDVSSYLEGEAVKKFIAWLVEK[Aib]KEFL-NH2
modifications: N-terminus assumed
SMILES: CC[C@H](C)[C@H](NC(=O)[C@H](Cc1ccccc1)NC(=O)[C@H](CCCCN)NC(=O)[C@H](CCCCN)NC(=O)[C@@H](NC(=O)[C@H](C)NC(=O)[C@H](CCC(=O)O)NC(=O)CNC(=O)[C@H](CCC(=O)O)NC(=O)[C@H](CC(C)C)NC(=O)[C@H](Cc1ccc(O)cc1)NC(=O)[C@H](CO)NC(=O)[C@H](CO)NC(=O)[C@@H](NC(=O)[C@H](CC(=O)O)NC(=O)[C@H](CO)NC(=O)[C@@H](NC(=O)[C@H](Cc1ccccc1)NC(=O)[C@@H](NC(=O)CNC(=O)[C@H](CCC(=O)O)NC(=O)C(C)(C)NC(=O)[C@@H](N)Cc1c[nH]cn1)[C@@H](C)O)[C@@H](C)O)C(C)C)C(C)C)C(=O)N[C@@H](C)C(=O)N[C@@H](Cc1c[nH]c2ccccc12)C(=O)N[C@@H](CC(C)C)C(=O)N[C@H](C(=O)N[C@@H](CCC(=O)O)C(=O)N[C@@H](CCCCN)C(=O)NC(C)(C)C(=O)N[C@@H](CCCCN)C(=O)N[C@@H](CCC(=O)O)C(=O)N[C@@H](Cc1ccccc1)C(=O)N[C@@H](CC(C)C)C(N)=O)C(C)C
Regarding B3, the “CRE luciferase EC50, 0% HSA” value was 0.325 nM and the “CRE luciferase EC50, 1% HSA” value was 0.097 nM.

B4: [Aib8,Glu23,Lys24,Val25,Glu30,Glu34,Lys35,Aib36,Lys37]-GLP-1-(7-37)-peptidyl-Glu-Phe-Leu amide (peptide)
peptide: H[Aib]EGTFTSDVSSYLEGEKVKEFIEWLVEK[Aib]KEFL-NH2
modifications: N-terminus assumed
SMILES: CC[C@H](C)[C@H](NC(=O)[C@H](Cc1ccccc1)NC(=O)[C@H](CCC(=O)O)NC(=O)[C@H](CCCCN)NC(=O)[C@@H](NC(=O)[C@H](CCCCN)NC(=O)[C@H](CCC(=O)O)NC(=O)CNC(=O)[C@H](CCC(=O)O)NC(=O)[C@H](CC(C)C)NC(=O)[C@H](Cc1ccc(O)cc1)NC(=O)[C@H](CO)NC(=O)[C@H](CO)NC(=O)[C@@H](NC(=O)[C@H](CC(=O)O)NC(=O)[C@H](CO)NC(=O)[C@@H](NC(=O)[C@H](Cc1ccccc1)NC(=O)[C@@H](NC(=O)CNC(=O)[C@H](CCC(=O)O)NC(=O)C(C)(C)NC(=O)[C@@H](N)Cc1c[nH]cn1)[C@@H](C)O)[C@@H](C)O)C(C)C)C(C)C)C(=O)N[C@@H](CCC(=O)O)C(=O)N[C@@H](Cc1c[nH]c2ccccc12)C(=O)N[C@@H](CC(C)C)C(=O)N[C@H](C(=O)N[C@@H](CCC(=O)O)C(=O)N[C@@H](CCCCN)C(=O)NC(C)(C)C(=O)N[C@@H](CCCCN)C(=O)N[C@@H](CCC(=O)O)C(=O)N[C@@H](Cc1ccccc1)C(=O)N[C@@H](CC(C)C)C(N)=O)C(C)C
Consider B4, for which the “CRE luciferase EC50, 0% HSA” value amounted to 0.716 nM and the “CRE luciferase EC50, 1% HSA” value stood at 0.164 nM.
Regarding HXEGTFTSDVSSYLEGQAAKEFIAWLVKKXKEFL (Aib at 8, 36; C-terminal amide) [[Aib8,Lys35,Aib36,Lys37]-GLP-1-(7-37)-peptidyl-Glu-Phe-Leu amide], the “CRE luciferase EC50, 0% HSA” value is 0.256 nM and the “CRE luciferase EC50, 1% HSA” value worked out at 0.084 nM.
Turning to HXEGTFTSDVSSYLEGQAAKEFIAWLVKKXGEFL (Aib at 8, 36; C-terminal amide) [[Aib8,Lys35,Aib36]-GLP-1-(7-37)-peptidyl-Glu-Phe-Leu amide], the “CRE luciferase EC50, 0% HSA” value is 0.045 nM and the “CRE luciferase EC50, 1% HSA” value is 0.015 nM.

B5: [Aib8,Glu23,Val25,Trp30,Glu34,Lys35,Aib36,Lys37]-GLP-1-(7-37)-peptidyl-Glu-Phe-Leu amide (peptide)
peptide: H[Aib]EGTFTSDVSSYLEGEAVKEFIWWLVEK[Aib]KEFL-NH2
modifications: N-terminus assumed
SMILES: CC[C@H](C)[C@H](NC(=O)[C@H](Cc1ccccc1)NC(=O)[C@H](CCC(=O)O)NC(=O)[C@H](CCCCN)NC(=O)[C@@H](NC(=O)[C@H](C)NC(=O)[C@H](CCC(=O)O)NC(=O)CNC(=O)[C@H](CCC(=O)O)NC(=O)[C@H](CC(C)C)NC(=O)[C@H](Cc1ccc(O)cc1)NC(=O)[C@H](CO)NC(=O)[C@H](CO)NC(=O)[C@@H](NC(=O)[C@H](CC(=O)O)NC(=O)[C@H](CO)NC(=O)[C@@H](NC(=O)[C@H](Cc1ccccc1)NC(=O)[C@@H](NC(=O)CNC(=O)[C@H](CCC(=O)O)NC(=O)C(C)(C)NC(=O)[C@@H](N)Cc1c[nH]cn1)[C@@H](C)O)[C@@H](C)O)C(C)C)C(C)C)C(=O)N[C@@H](Cc1c[nH]c2ccccc12)C(=O)N[C@@H](Cc1c[nH]c2ccccc12)C(=O)N[C@@H](CC(C)C)C(=O)N[C@H](C(=O)N[C@@H](CCC(=O)O)C(=O)N[C@@H](CCCCN)C(=O)NC(C)(C)C(=O)N[C@@H](CCCCN)C(=O)N[C@@H](CCC(=O)O)C(=O)N[C@@H](Cc1ccccc1)C(=O)N[C@@H](CC(C)C)C(N)=O)C(C)C
On to B5, for which the “CRE luciferase EC50, 0% HSA” value was found to be 0.157 nM and the “CRE luciferase EC50, 1% HSA” value came to 0.054 nM.

The values are drawn from patent US20150344540A1, “NOVEL GLP-1 RECEPTOR AGONISTS WITH CHOLESTEROL EFFLUX ACTIVITY” (NOVO NORDISK A/S, priority 2012, published 2015).
